B1: Refmab #5 (antibody, V domains shown)
VH: QVQLVQSGAEVKKPGASVKVSCKASGYTFTNYDINWVRQAPGQGLEWIGWIYPGDGSTKYNEKFKAKATLTADTSTSTAYMELRSLRSDDTAVYYCASGYEDAMDYWGQGTTVTVSS
VL: DIQMTQSPSSLSASVGDRVTINCKASQDINSYLSWFQQKPGKAPKTLIYRANRLVDGVPSRFSGSGSGQDYTLTISSLQPEDFATYYCLQYDEFPLTFGGGTKVEIK
notes: Full-length format is human IgG1 Fc silent (PG-LALA); also made as Fab; The alanine scan used IgG or Fab
B2: Refmab #5 (antibody, V domains shown)
VH: B1 VH
VL: B1 VL
notes: The alanine scan used IgG or Fab
B3: Refmab #6 (antibody, V domains shown)
VH: QVQLQQPGAEVVKPGASVKMSCKASGYTFTSYYIHWIKQTPGQGLEWVGVIYPGNDDISYNQKFQGKATLTADKSSTTAYMQLSSLTSEDSAVYYCAREVRLRYFDVWGQGTTVTVSS
VL: EIVLTQSPGSLAVSPGERVTMSCKSSQSVFFSSSQKNYLAWYQQIPGQSPRLLIYWASTRESGVPDRFTGSGSGTDFTLTISSVQPEDLAIYYCHQYLSSRTFGQGTKLEIK
notes: as for B1
B4: Refmab #6 (antibody, V domains shown)
VH: B3 VH
VL: B3 VL
notes: as for B2

How the values were obtained:
Test in all cases: alanine scan, flow cytometry, HEK293-T;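 also: antibody binding to each alanine-substituted CD33 mutant expressed transiently in HEK293-T, read as fluorescence minus background, mean of duplicates, relative to wild-type CD33 set as 100%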
[1] = target: human CD33 F61A (human, UniProt P20138 18-364)
Chain of human CD33 F61A (P20138 18-364 F61A limits assumed): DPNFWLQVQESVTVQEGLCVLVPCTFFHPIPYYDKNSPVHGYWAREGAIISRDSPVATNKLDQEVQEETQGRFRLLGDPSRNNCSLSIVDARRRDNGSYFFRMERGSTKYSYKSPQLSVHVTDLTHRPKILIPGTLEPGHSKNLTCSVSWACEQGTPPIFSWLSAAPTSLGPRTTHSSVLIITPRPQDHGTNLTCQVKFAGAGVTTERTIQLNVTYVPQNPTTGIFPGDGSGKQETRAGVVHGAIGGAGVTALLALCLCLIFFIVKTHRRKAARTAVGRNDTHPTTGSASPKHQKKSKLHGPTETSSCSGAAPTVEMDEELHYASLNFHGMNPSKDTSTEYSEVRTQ

[2] = target: human CD33 P48A (human, UniProt P20138 18-364)
Chain of human CD33 P48A (P20138 18-364 P48A limits assumed): as the sequence (P20138 18-364 F61A limits assumed) above, with P31A, A44F counted along it

[3] = target: human CD33 K77A (human, UniProt P20138 18-364)
Chain of human CD33 K77A (P20138 18-364 K77A limits assumed): as the sequence (P20138 18-364 F61A limits assumed) above, with A44F, K60A counted along it

[4] = target: human CD33 H57A (human, UniProt P20138 18-364)
Chain of human CD33 H57A (P20138 18-364 H57A limits assumed): as the sequence (P20138 18-364 F61A limits assumed) above, with H40A, A44F counted along it

[5] = target: human CD33 I105A (human, UniProt P20138 18-364)
Chain of human CD33 I105A (P20138 18-364 I105A limits assumed): as the sequence (P20138 18-364 F61A limits assumed) above, with A44F, I88A counted along it

[6] = target: human CD33 Y59A (human, UniProt P20138 18-364)
Chain of human CD33 Y59A (P20138 18-364 Y59A limits assumed): as the sequence (P20138 18-364 F61A limits assumed) above, with Y42A, A44F counted along it

[7] = target: human CD33 L93A (human, UniProt P20138 18-364)
Chain of human CD33 L93A (P20138 18-364 L93A limits assumed): as the sequence (P20138 18-364 F61A limits assumed) above, with A44F, L76A counted along it

[8] = target: human CD33 R109A (human, UniProt P20138 18-364)
Chain of human CD33 R109A (P20138 18-364 R109A limits assumed): as the sequence (P20138 18-364 F61A limits assumed) above, with A44F, R92A counted along it

[9] = target: human CD33 S71A (human, UniProt P20138 18-364)
Chain of human CD33 S71A (P20138 18-364 S71A limits assumed): as the sequence (P20138 18-364 F61A limits assumed) above, with A44F, S54A counted along it

[10] = target: human CD33 P46A (human, UniProt P20138 18-364)
Chain of human CD33 P46A (P20138 18-364 P46A limits assumed): as the sequence (P20138 18-364 F61A limits assumed) above, with P29A, A44F counted along it

[11] = target: human CD33 Y116A (human, UniProt P20138 18-364)
Chain of human CD33 Y116A (P20138 18-364 Y116A limits assumed): as the sequence (P20138 18-364 F61A limits assumed) above, with A44F, Y99A counted along it

[12] = target: human CD33 V73A (human, UniProt P20138 18-364)
Chain of human CD33 V73A (P20138 18-364 V73A limits assumed): as the sequence (P20138 18-364 F61A limits assumed) above, with A44F, V56A counted along it

[13] = target: human CD33 R119A (human, UniProt P20138 18-364)
Chain of human CD33 R119A (P20138 18-364 R119A limits assumed): as the sequence (P20138 18-364 F61A limits assumed) above, with A44F, R102A counted along it

[14] = target: human CD33 E84A (human, UniProt P20138 18-364)
Chain of human CD33 E84A (P20138 18-364 E84A limits assumed): as the sequence (P20138 18-364 F61A limits assumed) above, with A44F, E67A counted along it

[15] = target: human CD33 D107A (human, UniProt P20138 18-364)
Chain of human CD33 D107A (P20138 18-364 D107A limits assumed): as the sequence (P20138 18-364 F61A limits assumed) above, with A44F, D90A counted along it

[16] = target: human CD33 V56A (human, UniProt P20138 18-364)
Chain of human CD33 V56A (P20138 18-364 V56A limits assumed): as the sequence (P20138 18-364 F61A limits assumed) above, with V39A, A44F counted along it

[17] = target: T1, human CD33 Q171A (human, UniProt P20138 18-364)
T1 construct: alanine scan clone, transfected HEK293-T
T1 sequence (P20138 18-364 Q171A limits assumed): as the sequence (P20138 18-364 F61A limits assumed) above, with A44F, Q154A counted along it

[18] = target: T2, human CD33 W167A (human, UniProt P20138 18-364)
T2 construct: alanine scan clone, transfected HEK293-T
T2 sequence (P20138 18-364 W167A limits assumed): as the sequence (P20138 18-364 F61A limits assumed) above, with A44F, W150A counted along it

[19] = target: T3, human CD33 S186A (human, UniProt P20138 18-364)
T3 construct: alanine scan clone, transfected HEK293-T
T3 sequence (P20138 18-364 S186A limits assumed): as the sequence (P20138 18-364 F61A limits assumed) above, with A44F, S169A counted along it

[20] = target: T4, human CD33 L187A (human, UniProt P20138 18-364)
T4 construct: alanine scan clone, transfected HEK293-T
T4 sequence (P20138 18-364 L187A limits assumed): as the sequence (P20138 18-364 F61A limits assumed) above, with A44F, L170A counted along it

[21] = target: T5, human CD33 S178A (human, UniProt P20138 18-364)
T5 construct: alanine scan clone, transfected HEK293-T
T5 sequence (P20138 18-364 S178A limits assumed): as the sequence (P20138 18-364 F61A limits assumed) above, with A44F, S161A counted along it

[22] = target: T6, human CD33 V136A (human, UniProt P20138 18-364)
T6 construct: alanine scan clone, transfected HEK293-T
T6 sequence (P20138 18-364 V136A limits assumed): as the sequence (P20138 18-364 F61A limits assumed) above, with A44F, V119A counted along it

[23] = target: T7, human CD33 A168S (human, UniProt P20138 18-364)
T7 construct: alanine scan clone, transfected HEK293-T
T7 sequence (P20138 18-364 A168S limits assumed): as the sequence (P20138 18-364 F61A limits assumed) above, with A44F, A151S counted along it

[24] = target: T8, human CD33 K130A (human, UniProt P20138 18-364)
T8 construct: alanine scan clone, transfected HEK293-T
T8 sequence (P20138 18-364 K130A limits assumed): as the sequence (P20138 18-364 F61A limits assumed) above, with A44F, K113A counted along it

[25] = target: T9, human CD33 I176A (human, UniProt P20138 18-364)
T9 construct: alanine scan clone, transfected HEK293-T
T9 sequence (P20138 18-364 I176A limits assumed): as the sequence (P20138 18-364 F61A limits assumed) above, with A44F, I159A counted along it

[26] = target: T10, human CD33 P155A (human, UniProt P20138 18-364)
T10 construct: alanine scan clone, transfected HEK293-T
T10 sequence (P20138 18-364 P155A limits assumed): as the sequence (P20138 18-364 F61A limits assumed) above, with A44F, P138A counted along it

[27] = target: T11, human CD33 T173A (human, UniProt P20138 18-364)
T11 construct: alanine scan clone, transfected HEK293-T
T11 sequence (P20138 18-364 T173A limits assumed): as the sequence (P20138 18-364 F61A limits assumed) above, with A44F, T156A counted along it

[28] = target: T12, human CD33 S135A (human, UniProt P20138 18-364)
T12 construct: alanine scan clone, transfected HEK293-T
T12 sequence (P20138 18-364 S135A limits assumed): as the sequence (P20138 18-364 F61A limits assumed) above, with A44F, S118A counted along it

[29] = target: T13, human CD33 K159A (human, UniProt P20138 18-364)
T13 construct: alanine scan clone, transfected HEK293-T
T13 sequence (P20138 18-364 K159A limits assumed): as the sequence (P20138 18-364 F61A limits assumed) above, with A44F, K142A counted along it

[30] = target: T14, human CD33 G156A (human, UniProt P20138 18-364)
T14 construct: alanine scan clone, transfected HEK293-T
T14 sequence (P20138 18-364 G156A limits assumed): as the sequence (P20138 18-364 F61A limits assumed) above, with A44F, G139A counted along it

[31] = target: T15, human CD33 P145A (human, UniProt P20138 18-364)
T15 construct: alanine scan clone, transfected HEK293-T
T15 sequence (P20138 18-364 P145A limits assumed): as the sequence (P20138 18-364 F61A limits assumed) above, with A44F, P128A counted along it

[32] = target: T16, human CD33 H137A (human, UniProt P20138 18-364)
T16 construct: alanine scan clone, transfected HEK293-T
T16 sequence (P20138 18-364 H137A limits assumed): as the sequence (P20138 18-364 F61A limits assumed) above, with A44F, H120A counted along it

[33] = target: T17, human CD33 S194A (human, UniProt P20138 18-364)
T17 construct: alanine scan clone, transfected HEK293-T
T17 sequence (P20138 18-364 S194A limits assumed): as the sequence (P20138 18-364 F61A limits assumed) above, with A44F, S177A counted along it

[34] = target: T18, human CD33 S181A (human, UniProt P20138 18-364)
T18 construct: alanine scan clone, transfected HEK293-T
T18 sequence (P20138 18-364 S181A limits assumed): as the sequence (P20138 18-364 F61A limits assumed) above, with A44F, S164A counted along it

[35] = target: T19, human CD33 P189A (human, UniProt P20138 18-364)
T19 construct: alanine scan clone, transfected HEK293-T
T19 sequence (P20138 18-364 P189A limits assumed): as the sequence (P20138 18-364 F61A limits assumed) above, with A44F, P172A counted along it

[36] = target: T20, human CD33 T142A (human, UniProt P20138 18-364)
T20 construct: alanine scan clone, transfected HEK293-T
T20 sequence (P20138 18-364 T142A limits assumed): as the sequence (P20138 18-364 F61A limits assumed) above, with A44F, T125A counted along it

Row | Binder | Mean % WT Binding [1] | Mean % WT Binding [2] | Mean % WT Binding [3] | Mean % WT Binding [4] | Mean % WT Binding [5] | Mean % WT Binding [6] | Mean % WT Binding [7] | Mean % WT Binding [8] | Mean % WT Binding [9] | Mean % WT Binding [10] | Mean % WT Binding [11] | Mean % WT Binding [12] | Mean % WT Binding [13] | Mean % WT Binding [14] | Mean % WT Binding [15] | Mean % WT Binding [16] | Mean % WT Binding [17] | Mean % WT Binding [18] | Mean % WT Binding [19] | Mean % WT Binding [20] | further results
1 | B1 | 161 % WT binding | 92.8 % WT binding | 124 % WT binding | 121 % WT binding | 41.7 % WT binding | 205 % WT binding | 134 % WT binding | 103 % WT binding | 150 % WT binding | 79.1 % WT binding | 16 % WT binding | 112 % WT binding | 167 % WT binding | 141 % WT binding | 119 % WT binding | 93 % WT binding |  |  |  |  | 
2 | B2 |  |  |  |  |  |  |  |  |  |  |  |  |  |  |  |  | 105 % WT binding | 95.5 % WT binding | 112 % WT binding | 144 % WT binding | Mean % WT Binding [21]: 117 % WT binding; Mean % WT Binding [22]: 104 % WT binding; Mean % WT Binding [23]: 103 % WT binding; Mean % WT Binding [24]: 271 % WT binding; Mean % WT Binding [25]: 97 % WT binding; Mean % WT Binding [26]: 140 % WT binding; Mean % WT Binding [27]: 101 % WT binding; Mean % WT Binding [28]: 108 % WT binding; Mean % WT Binding [29]: 148 % WT binding; Mean % WT Binding [30]: 92.3 % WT binding; Mean % WT Binding [31]: 82.9 % WT binding; Mean % WT Binding [32]: 120 % WT binding; Mean % WT Binding [33]: 90.4 % WT binding; Mean % WT Binding [34]: 128 % WT binding; Mean % WT Binding [35]: 115 % WT binding; Mean % WT Binding [36]: 101 % WT binding
3 | B3 | 111 % WT binding | 104 % WT binding | 79.9 % WT binding | 63 % WT binding | 25.5 % WT binding | 83.2 % WT binding | 94.2 % WT binding | 107 % WT binding | 99.4 % WT binding | 49.3 % WT binding | 5 % WT binding | 77.7 % WT binding | 123 % WT binding | 97.4 % WT binding | 96.5 % WT binding | 113 % WT binding |  |  |  |  | 
4 | B4 |  |  |  |  |  |  |  |  |  |  |  |  |  |  |  |  | 99.6 % WT binding | 90.5 % WT binding | 110 % WT binding | 119 % WT binding | Mean % WT Binding [21]: 102 % WT binding; Mean % WT Binding [22]: 65.8 % WT binding; Mean % WT Binding [23]: 100 % WT binding; Mean % WT Binding [24]: 119 % WT binding; Mean % WT Binding [25]: 102 % WT binding; Mean % WT Binding [26]: 104 % WT binding; Mean % WT Binding [27]: 98.9 % WT binding; Mean % WT Binding [28]: 110 % WT binding; Mean % WT Binding [29]: 123 % WT binding; Mean % WT Binding [30]: 88.1 % WT binding; Mean % WT Binding [31]: 89.7 % WT binding; Mean % WT Binding [32]: 117 % WT binding; Mean % WT Binding [33]: 92.4 % WT binding; Mean % WT Binding [34]: 102 % WT binding; Mean % WT Binding [35]: 103 % WT binding; Mean % WT Binding [36]: 91.6 % WT binding

Source: patent publication US20260242735A1 (UNIVERSIT T BASEL, published 2026)
